In the nanobody polyreactivity screen of Harvey et al. (2022):

Test: yeast display, Sf9 membrane polyspecificity reagent, FACS + sequencing; frameworks hold sequencing errors
Summary of the method: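 A nanobody's polyreactivity label depends on the gate it was sorted from. Yeast display cells were stained with 10% biotinylated, detergent-solubilized Sf9 membrane reagent for 1 hour at 4 °C, enriched on streptavidin microbeads and sorted by FACS. The low and high (top ~1%) gates were set on anti-HA fluorescence for expression and streptavidin fluorescence for reagent binding.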

Row | Sequence | polyreactivity (PSR sort gate)
1 | QVQLVESGGGLVQAGGSLRLSCAASGRIFKFNAMGWYRPAPGKERELVAAITTGGGSTYYADSVKGRFTISRDNAKNTVYLQMNSLKPEDSAVYYCATDRRHVYSSRRYYYWVQGTQVTVSS | high polyreactivity
2 | QVQLVESGGGLVQAGGSLRLSCAASGFIFKWYAMGWYRQAPGKERELVAAISTSGGSTYYADSVKGRFTISRDNAKNTVYLQMNSLKPEDTAVYYCAVLVGRLVWSYNHWGQGTQVTVSS | high polyreactivity
3 | QGQLVESGGGLVQAGGSLRLSCAAAGYTLGVNAMGWSRQAPGKERELVAAINYIDTRTYYAASVKGRFTISRDNAKNTVYLQMNSLNPEDTAVYYCAARPYVPWVKRYYYWGQGTQVTVSS | low polyreactivity
4 | QVQLVESGGGLVQAGGSLRLSCAASGRTFTKYAMGWYRQAPGKERELVAAISRSGGSTYYADSVKGRFTISRDNAKNTVYLQMNSLKPEDTAVYYCAARGQYRYSFGDYSWGQGTQVTVSS | high polyreactivity
5 | QVQLVESGGGLVQAGGSLRLSCAASGYIFYEYAMGWYRQAPGKERELVAAISRRGGRTYYADSVKGRFTISRDNAKNTVYLQMKSLKPEDTAVYYCATRVIYGHSVGYWGQCTQVTVSS | high polyreactivity
6 | QVQLVESGGGLVQAGGSLRLSCAASGFIFGNNDMGWYRPAPGKERELVAAISNSGGRTYYADSVKGRFTISRDNAKNTVYLQMNSLKPEDTAVYYCAKAYRPPGYDSWGQGTQVTVSS | high polyreactivity
7 | QVQLVESGGGLVQAGGSLRLSCAASGRIDAYTMGWYRQAPGKERELVAAISTSTSNTYYADSVKGRFTISRDNAKNTVYLQMNSLKPEDTAVYYCDEAYYSPWWGYYWGQGTQVTVSS | low polyreactivity
8 | QVQLVESGGGLVQAGGSLRLSCAASGNTFYVKVMGWSRQAPGKERELVARITTSGGSTSYAESVKGRFTISRDNAKNTVSFQMNSMKPEDTAVYYCAASYHAFQNWEYDYWGQGTQVTVSS | low polyreactivity
9 | QVQLVESGGGLVQAGGSLRLSCAASGSTLFWNAMGWYRKAPGKERELVAVISFSGVSTYYADSVKGRFTISRDNAKNTVYLQLNSLKPEDTAVYYCAAGRCLYYYYGYVDKYGYWGQGTQVTVSS | low polyreactivity
10 | QVQLVESGGGLVQAGGSLRLSCAASGRIFVTNAMGWYRQAPGKERELVAAISTGGSTNYADSVKGRFTISRDNAKNTVYVQRNSLKPEDTAVYYCNRGSRYSHKYDYWGQGTQVTVSP | high polyreactivity
11 | QVQLVESGGGLVQAGVSLRLSCAASGSIFGWYAMGWYRQAPGKERELVAGITRSGGSTYYADSVKGRFTISRDNAKNNVYLQMDSLNPEDTAVYYCNADLYRKRAWGSRDGSWGQGTQVTVSS | low polyreactivity
12 | QVQIVDSGGGLVQAGGSLSLSCAASGSTIYRYAMGWYRQAPGKERELVAAITSAGSTNYADSVKGRFTISRDNAKNTVYLQMNSLKPEDTAVYYCAADHGRPYFSYDYWGQGTQVTVSS | low polyreactivity
13 | QVQLVESGGGLVQAGGSLRLSCAASGSIFAGNAMGWYRQPPGKERELVASISWRGGSTYYADSVKGRFTISRDNAKKTVYLQMNSLKPEDTAVYYCNADLVLFPLTWPYYYWGQGTQVTVSS | low polyreactivity
14 | QVQLVESGGGLVQAGGSLRLSCAASGSIFAGNAMGWYRQAPGKERELVAAITFSAGRTSYADSVKGRFTISRDNAKNTVYLQMNSLKPEDTAVYYCAARYRTDYYPEYDYWGQGTQVTVSS | low polyreactivity
15 | QVQLVESGGGLVQAGGSLRLSCAASGFIFRRYAMGWYRQAPGKERELVAAISRGGGSTYYADSVKGRFTISRDNAKNTVYFQMNSLKPEDTAVYYCAARFVPYDAPLNERDYWGQGTQVTVSS | high polyreactivity
16 | QVQLVESGGGLVQAGGSLRLSCAASGRIFSYYTMGWYRQEPRKERELVATITSGVNTNYADSVKGRFTISRDNAKNTVYLQMNSLKPEDTAVFYCIARGTAERDYWGQGTQVTVSS | high polyreactivity
17 | QVQLVESGGGLVQAGGSLRLSCAASGITFFTNVMGWYRPAPGKERELVAAISRSGTSTYYADSVKGRFTISRDNAKNTVYLQMNSLKPEDTAVYYCNADQIRGDGDYWGQGTQVTVSS | high polyreactivity
18 | QVQLVESGGGLVQAGGSLRLSCAASALTLRHYAMGWYRQAPGKERELVARIRISGRTYYADSVKGRFTISRDNAKNTVYLQMNSLKPEDTAVYYCAKVQFATSPPGLTLSYYYWGQGTQVTVSS | high polyreactivity
19 | QVQLVESGGGLVQAGGSLRLSCAASGFISHKYAMGWYRHAHGKERELVAAISWSGTSTHYADSVKGRFTISRDNAKKTVYIQMKSLKPEDTAVYYCAARRYPVLKYDYWGEGTQVTVSS | high polyreactivity
20 | QVQLVETGGGLVQAGGSLRLSCAASGTFHWYAMGWYRPAPGKERELVAAITGSGGNTYYADSVKGRFTISRDNAKNTVYLQMNSLKPEDTAVYYCAARIYTWSVQYTGYGYWGQGTQVTVSS | high polyreactivity
21 | QVHLVESGGGLVKAGGSLRLSCAASGRIFDNYVMGWYRQAPGKERELVAAISSGGGTYYADSVKGRFTISLDNAKNTVYLQMNSLKPEDTAVYYCAAAAYYADFDYWGQGTQVTVSS | low polyreactivity
22 | QVHHVESGGGLVQARGSLRLSCAASGFIFSSYTMGWYRQAPGKERELLAAITSRGGSTYYADSVKGRVTISRDTAKNTVYLQMNSLKAEDTAVYYCNARRIPYSPYGVHEGNYWGQGTQVTVSS | high polyreactivity

Row | Sequence | polyreactivity (PSR sort gate)
23 | QVQLVESGGGLVQAGGSLRLSCAPSGSIFERYAMGWYRHAPGKERELVAAISWRGGSTYYADSVKGRFTISRDNAKNTVYLQMNSLIQEDTAVYYCAADSRTCYYYWGQGTQVTVST | high polyreactivity
24 | QVQLVESGGGLVQAGGSLRLSCAASGSTFGNAMGWYTQAPGKEREWVAAISSRGDRTYYADSVKGRFTISRDNAKNTGYLQMNSLKPEDTAVYYCAKDGYPNKYDYWGQGTQVTVSS | high polyreactivity
25 | QVQLVESGGGLVQAGGSLRLSCADSGGTFKLYAMGWYSQAPAKESELVAAISRRGGSTYYADSVKGRFTISRDNAKNTVYLQMNSLKPDDTAVYYCAAPGPTQSTQRGGYWGQGTQVTVSS | high polyreactivity
26 | QDQLVESRGGLVQAGGSLRLSCAASGIIFGYYAMGWYRQAPGKERELVAAISRRGGSTYYADSVKGRFTISRDNAKNTVYLQMNSLKPEDTAVYYCAAVELRLSTPDMESWGQGTQVTVSS | high polyreactivity
27 | QVQLVESGGGLVQAGGSLRLSCAATGSIFRYYAMGWYRQAPGKERELVAAISWSGGSTYYSDSVKGRFTISRDNAKNTVYLQMNSLKPEDTAVYYCNVKRYGGRSDYWGQGSQVTVSS | high polyreactivity
28 | QVQLVESGGGLVQAGGSLRLSCAASGRSFKRYDMGGYIQAPGKERELVAAITGTGGSTYYADSVKGRFTISRDNAKNTVYLQMNSLKPEDPADYYCAARLYNTYSGFAFGYWGQGTQVTVSS | high polyreactivity
29 | QVRLVESGGGLVQAGGSLRLSCAASGSTFPYYDMGWYRQAPGKERELVAAITWSSGSTYYADSVKGRFTISRDNAKNTVYLQMNSLKPEDTAVYYCAAELYSYREDYGAHYAYEYWGQGTQVTVSS | low polyreactivity
30 | QVQLVESGGGLVQAGGSLRLSCAASGRIFKSNAMGWYRQAPGKERELVASITASGGRTYYADSVKGRFTISRDNAKNTVYLQMNSLKPEDTAVYYCAAGRPFSKYGYWGQGTQVTVSS | high polyreactivity
31 | QVQLVESGGGLVQAGGSLRLSCAASGFTFATNAMGWYTPAPGKERELVAVISSGGSTYYADSVKGLFTISRDNAKNTVYLQMNRLKPEDTAVYYCNAGRKVRGALDGYDYWGQGTQVTVSS | high polyreactivity
32 | QVQLVESGGGLVQAGGSLRLSCAASGIILNYYAMGWYRQAPGKERELVAAISSGGTTYYADSVKGRFTISRDNAKNTVYLQMNSLKPEDTAVYYCNADYLYSRGGDWRWWDMDYWGQGTQVTVSS | low polyreactivity
33 | QVQLVESGGGLVQAGGSLRLSCAASGIIFLENAMGWYRQAPGKEREFVAAISRSGGITYYADSVKGRFTISRDNAKNTVYLQMNSLKPEDTAVYYCAAVGRDRYRHSPQPLYDYWGQGTQVTVSS | low polyreactivity
34 | QVQLVESAGGLVQAGGSLRLSCAASGRNFYYYAMGWYRQAPGKERELVAAISIGGITYADSVKGRFTISRDNAKNTVYLQMNRLKPEDTAVYYCAATARQSRGRYYWGQGTQVTVSS | low polyreactivity
35 | QVQLVESGGGLVQAGGSLRLSCAASGSIFNLYALGWYRKAPGKERELVAAIRWDGGSTYYADSVKGRFTISRDNAKNTVYLQMNSLKPEDTAVYYCAAETVYFRLLILDYWGQGTQVTVSS | high polyreactivity
36 | QVQLVESGGGLVQAGGSLRLSCAASGRIFGRNAMGWYRQAPGKERELVASITSGGGTNYADSVKGRFTISRDNAKNTVYLQMNCLKPEDTAVYYCAAKRHLEGYSGSIGRYYYWGQGTQVTVSS | low polyreactivity
37 | QVQLVESGGGLVQAGGSLRLSCAASGYAMGWYRQAPGKERELGAAITSGGSTNYADSVKGRFTISRDNAKNTVYLQMNSVKPEDTAVYYCAAAYSLYGHRYDYWGQGTQVTVSS | low polyreactivity
38 | QVQLVESGGGLVQAGGSLRLSCAASGRIFGFNAMGWYRQAPGKERELVAGITDSSGRTNYADSVKGRFTISRDNAKNTVYLQMNSLKPEDTAVYYCAKDGLVIPADGSDYWGQGTQVTVSS | low polyreactivity
39 | QVQLGESGGGLVQAGGSLRLSCAACGSIFKPYAMGWYRQAPGTERELVAAISGIGGSTYYADSVKGRFTISRDTAKNTVYLQMNSLTPEDTAVYYCAADTFFKIFSEYNYWGQGTQVTLSS | high polyreactivity
40 | QVQLVESGGGLVQAGGSHRLSCAASGLTLYQYTMGWYRQAPGKERELVAAITTSGSTYYADSVKGRFTISRDNEKNTVYLQMNSLKPEDTAVYYCAAVVYYVDTLSGYRYGYDYWGQCTQVTVSS | low polyreactivity
41 | QVQLVESGGGLVQAGGSLRLSCAASGRTFPYNAMGRYRQAPGKERELVAAISGRGGSTYYADSVKGRFTISRDNAKNTVYLQMNSLKPEDTAVYYCAVYTIYGFYYWGQGTQVTVSS | high polyreactivity
42 | QVQLVESGGGLVQAGGSLRLSCAASGFTFFRIYAMGWYRQAPGKERELVAAISRSGSTYADSVKGRFTISRDNAKNTVYLQMNSLKPEDTAVYYCNTTLYADSVWYDYWGQGTQVTVSS | high polyreactivity
43 | QVQLVESGGGLVQAGGSLRLSCAASGITFSRNVMGWYRQAPGKERELVAAISRSGGRTYYADSVKGRFTISRDTAKNTVYLQINSLKAEDTAVYYCNRDIGGTSVLDDYWGQGTQVTVSS | low polyreactivity
